Measured values: article PMC3315493

How the values were obtained:
[1] = biological target: Vpu of wildtype HIV-1 NL4.3 (expressed from the virus); assay: co-immunoprecipitation (anti-tetherin IP, Western blot, LiCor quantitative imager); details: 293T/tetherin Y6,8A cells, MOI of 2, 48 h post infection, read off a plot
[2] = biological target: tetherin Y6,8A (stably expressed in 293T/tetherin Y6,8A cells) (UniProt Q10589); assay: as above; details: MOI of 2, 48 h post infection

Substance	response (ratio Vpu/tetherin band intensity in IP) ([1]; UBAP1 siRNA)	response (ratio Vpu/tetherin band intensity in IP) ([1]; control siRNA)	response (ratio Vpu/tetherin band intensity in IP) ([2]; UBAP1 siRNA, parent: est. 1.3, read off a plot)	response (ratio Vpu/tetherin band intensity in IP) ([2]; control siRNA, parent: est. 1.6, read off a plot)
human tetherin (stably expressed in 293T/tetherin cells) (from UniProt Q10589) Y6A; Y8A	1.3	1.6	–	–
Vpu of wildtype HIV-1 NL4.3 (expressed from the virus) E59A; L63A; V64A	–	–	0.9	0.5
